The nature of this data set: soluble on expression in E. coli; label from the status in PepcDB or PDB records.
On to “MSLHTPLEQQEIRYRKGDIIELTITDHAEKDKCFGKTTEGMGVMVSGILAPGDRVSAQIYKVKSRYLEARAIEVLEASPDRVEPVCPVFGSCGGCKWMHVSYEAQLRYKHKKVTDSLEHIGGFESPDVRPVLAAPDALHYRNKVEFSCSNMRYLLQSEIDSDQLAKPKTFALGFHAPGNFEKVLDLDTCYLAKECMNRVLNVLRDFAIERGLEPYAAKAHEGYLRNLMLRYSERHEQLMVNIVTSWYDKALMQALKERLEAAMPEQQMTLLNNVTTRKNTVATGEQEYVISGDGYVTERLGDLDFRISANSFFQTNTRQAETLYDQIIAVGGITPEDTVYDLYCGTGTITLYLARHCKQAIGIEVVESAVKDAEMNAELNGLSNTVFFQADLKNFHAMQEALEPYAKPRIIVTDPPRAGMHPKALDTMLKLQPERIVYVSCNPDNLARDGKEIAARGYRMTSAQPVDMFPQTNHIETVACFERAEGHHHHHH”, for which the “soluble on expression in E. coli” value was “soluble”.

Turning to “MSERHGVQEATLRNWANLGYITSCRMGNQLFLDDESLTAYLEAHKRLGLQADYLAKIVEEKKLERDFIISRYDDLLYVLRTQKTCKPLYEIIIRELSQLIVHPGARDIFYSISMGESIEKVAGRHRITYDRALQIYNSHLRGLKVRKNVLATYRKHIIDARFQSLADKSKNINLNQEERVLQLSVGKVADTRLTNVLYKEEIRTVGQLLELVSGKGWRWLLKMEGVGRISYDRLLSNLQLAGVVDESLEQILSGRSDR”, the “soluble on expression in E. coli” value is “not soluble”.

On to “GPGSMFLNNNMVDDARTVQLLEEIDVQLERWGKKYGLDPSNEKQKRIPTAGGGDIKPSASSQRSHDVPNVKFVNDRTNSKVGIVETAAVAAPQGFDPSALFDRIDMLEKKLKVAEEERMILSERLFAAERIVVEVVNAQKGLQDEWAALSTQSFSISHLDDDRRTIVDSGKTSKRDCAFTSYTTQSRQSTQSGNSSVAGLSAFVSPAKEDTSRSCLQSPVRNAGSSGSVLGGEEEEDVVGATERRLFALDDLAQRLAV”, for which the “soluble on expression in E. coli” value was “not soluble”. Take “SKVTSLTACLVDQSLRLDCRHENTSSSPIQYEFSLTRETKKHVLFGTVGVPEHTYRSRTNFTSKYNMKVLYLSAFTSKDEGTYTCALHHSGHSPPISSQNVTVLRDKLVKC”: the “soluble on expression in E. coli” value is listed as “soluble”. As for “MTKAADDNIIVGLDIGTATVSALVGEILPDGQINIIGAGSSPSRGMDKGGVNDLESVVKSVQRAIDQAELMAECQISRVFISLSGKHIASRIEKGMGTISDEEVSQEDMDRAIHTAKSIKIGDEQ”, the “soluble on expression in E. coli” value is listed as “not soluble”.

As for “MGSDKIHHHHHHMEKVKAILFDKDGTLMDFHSIWIKVAEELVAEYIKLYQLPQSMQPTLLKEIGVDGVFVHPRSAIAAGTSLDVAKGLCKYITSSKEEEMHEWVSEKLFALMYEHRSYMKMTADLPRILQSLKDRGFILGVVTADDFAPTELFLKQYQLETFFDYVVASDTFAAQKPDKRIIESFCERFHLKACEVAVVGDTPTDLYLAKNGDCYAIGVLSGTGNRQTLEPLADLVVQSVGDFISHSGEFVWEKGKSNV”, the “soluble on expression in E. coli” value was “not soluble”.

Regarding “DNKINIGLAVMKILESWGADTIYGIPSGTLSSLMDAMGEEENNVKFLQVKHEEVGAMAAVMQSKFGGNLGVTVGSGGPGASHLINGLYDAAMDNIPVVAILGSRPQRELNMDAFQELNQNPMYDHIAVYNRRVAYAEQLPKLVDEAARMAIAKRGVAVLEVPGDFAKVEIDNDQWYSSANSLRKYAPIAPAAQDIDAAVELLNNSKRPVIYAGIGTMGHGPAVQELARKIKAPVITTGKNFETFEWDFEALTGSTYRVGWKPANETILEADTVLFAGSNFPFSEVEGTFRNVDNFIQIDIDPAMLGKRHHADVAILGDAALAIDEILNKVDAVEESAWWTANLKNIANWREYINMLETKEEGDLQFYQVYNAINNHADEDAIYSIDVGNSTQTSIRHLHMTPKNMWRTSPLFATMGIAIPGGLGAKNTYPDRQVWNIIGDGAFSMTYPDVVTNVRYNMPVINVVFSNTEYAFIKNKYEDTNKNLFGVDFTDVDYAKIAEAQGAKGFTVSRIEDMDRVMAEAVAANKAGHTVVIDCKITQDRPIPVETLKLDSKLYSEDEIKAYKERYEAANLVPFREYLEAEGLESKYIK”, the “soluble on expression in E. coli” value was “soluble”.

As to “MSLAANMYRVGDYVYFENSSSNPYLIRRIEELNKTANGNVEAKVVCFYRRRDISSTLIALADKHATLSVCYKAGPGADNGEEGEIEEEMENPEMVDLPEKLKHQLRHRELFLSRQLESLPATHIRGKCSVTLLNETESLKSYLEREDFFFYSLVYDPQQKTLLADKGEIRVGNRYQADITDLLKEGEEDGRDQSRLETQVWEAHNPLTDKQIDQFLVVARSVGTFARALDCSSSVRQPSLHMSAAAASRDITLFHAMDTLHKNIYDEGHHHHHH”, the “soluble on expression in E. coli” value is given as “not soluble”. Under “MGSDKIHHHHHHMKIDSEHLEILAVIVEKGGLTEGAEALGKSQPSVSRTMALLEERIGTPLFEAGRRPLRPTELGNQLARLGAKIRTQNLEASRLVQRYRQGQAGRLRLGGTPIFFDGVVAGMVAEFQNRHSDVQITQTYGYFEDLSAGLRSGALDLAILPMHANMIPADMQFTPLLAGRNVIVGSATHPLARRGAITLADIEPYSWIAPPPDSPLFRDLQRSLKSIGLDDFKVSFSGGTLASIFSVVLGSDSLTVLPYSVVFTHQRVIPLQALPLRIEHPDRQLGLLTATERMPPPALERFVAFVTEKFKHLSTRMEHEQQVTRRRG” stands “not soluble”. Take “MLYPSKPNNEALRIQTLRELNVLDTSPEERFDRLTRLAKRLFNVPIALVSLVDADRQWFKSCVGLDVSETSRDISFCGHAILGDQILTVPDAGLDERFHDNPLVVGAPGIRFYAGCPLTVTNGSKLGTLCLIDIKPRDLDDEDRALLRDLARMAEQELAAVQMASMDELTLLSNRRGFEALARHALGVCKRLEKPATLLFFDLNDFKQINDTYGHAEGDGALKTFADVLRIAFRESDVIGRLGGDEFVALLTAADHVETSAIMARLREILDERNATLKRGYDIRFSVGQIEYDAERHPDIEALLADADKAMYLHKQASKRAR”: the “soluble on expression in E. coli” value is “not soluble”.

Consider “MGSDKIHHHHHHMKEILTVTELNSYIANLLDSDPFLGQLWLRGEISGFRLYQQSGHMYFTLKDEDSTISAVMFKSRARGLKFKPKDGMEVLLRASVSVFARQGKYQLYVEEMQPYGIGGLFLYLEELKKKLAAKGYFAPERKKAIPAFVQRVGIVTSQDGAALRDICRILKQRHPGVEVVLAHSSVQGSEAPGELAEGLRLLNSYAEVELIIIGRGGGSYEDLMAFNSELVVQAIYESNIPVISAVGHEVDFTLADLVADLRAATPSQAASLAVADMQALSRQLDNYQQRLLRAMQRKLLYYTEIIDRLMMKRIWKQPRSLLHMREELLSQLEKSLSRGMAEIFREKKMKLSMNMAALDSLSPLKIMERGYVLLQKEGRIIRDEQQVQIGDRLEVAMRHADLEIEVIKKERVKRWKS”, for which the “soluble on expression in E. coli” value is on record as “not soluble”.

For the sequence “SMQEEDTFRELRIFLRNVTHRLAIDKRFRVFTKPVDPDEVPDYVTVIKQPMDLSSVISKIDLHKYLTVKDYLRDIDLICSNALEYNPDRDPGDRLIRHRACALRDTAYAIIKEELDEDFEQLCEEIQESR”, the “soluble on expression in E. coli” value is “soluble”. For “ADQPSPTWGIDRIDQRNLPLDNNYHTDYDGSGVTAFVIDTGVLNTHNEFGGRASSGYDFIDNDYDATDCNGHGTHVAGTIGGSTYGVAKNVNVVGVRVLNCSGSGSNSGVIAGINWVKNNASGPAVANMSLGGGASQATDDAVNAAVAAGITFVVAAGNDNSNACNYSPARAADAITVGSTTSNDSRSSFSNYGTCLDIYAPGSSITSSWYTSNSATNTISGTSMASPHVAGVAALYLDENPNLSPAQVTNLLKTRATADKVTDAKTGSPNKLLFSLA” the value was “soluble”; for “GKSASGEKEGNENAEEEAAAIEEARREAEERRKEKHRKMEEEREEMRQTIRDKYGLKKKVKEEPEAEADLDEGRVGRKK”, “soluble”.

As to “MGSDKIHHHHHHMIRVLLANPRGFCAGVDRAIEIVERALAMYGAPIYVRHEVVHNRFVVEDLEKKGAVFVENLEEVPEGSMLIFSAHGVSHEVRREAAARKLQIFDATCPLVTKVHVEVAKMDKEGKEIVMIGHQGHPEVEGTMGQIAKSKGTMYLVETAEDVARLQVKNESNLAYVTQTTLSVDDAARVIEALKQRFPKIIGPKKDDICYATQNRQDAVKKLVKLCDLVVVVGSPNSSNSNRLCEVARNENVEAYMVDQAEQLQESWLTNKRCIGITAGASAPEILVQQVLERLEQIAAKQSNQGVIIEELSGVLESVTFPLPKAEPVSFNKYI”, the “soluble on expression in E. coli” value is “not soluble”. Take “KGLSADKKYFETRVNPTSVFWTGGKWKERLVQIMSQTQEQDILKFLKQTASPAMHELQRELSEEYGLSVRVDKMFHRDEPAIEFVIRKETMRDFMYGIKSVGQDVSDQLINDGKLPHIRHQTTYKPYAYFFDGRVGYDVQYMNKDELIADILKNYERYLMLLDDVGQELMAHEQVELAE”: the “soluble on expression in E. coli” value is given as “not soluble”. In the case of “QPPQFKLDPRLARLLGIHTQTRPVIIQALWQYIKTHKLQDPHEREFVLCDKYLQQIFESQRMKFSEIPQRLHALLMPPEP”, the “soluble on expression in E. coli” value is recorded as “soluble”. On to “MEHKTPKHIVAVAGYLTNEKNEVLLTKVHWRADTWELPGGQVEEGEALDQAVCREIKEETGLTVKPIGITGVYYNTSMHILAVVFKVAYISGEIKIQPEEIQEAKFVDLNEENIDEYITRPHMKSRTLDAMRATHFIPYETWEVQPYNLIGRL”, for which the “soluble on expression in E. coli” value was “not soluble”. For “MALVNEHFLKLPGSYLFSDIAKKVNTFKITHPKQDIIRLGIGDVTQPLPKACIEAMHKAVEELASKDTFRGYGPEQGYDFLIEAIIKNDFAPRGIHFSPSEIFVNDGAKSDTGNIGDILRHDNSVGVTDPIYPVYIDSNVMCGRAGVLEEGTGKWSNVTYMPCTSENDFIPEIPDKRIDIVYLCYPNNPTGTTLTKPELKKWVDYALANDTLILFDAAYEAYIQDADVPHSIYEIKGAKKCAIEFRSFSKTAGFTGVRCGYTVVPKELTAATLEGDRIPLNKLWNRRQCTKFNGTSYITQRAAEAVYSTEGKAQIKETINYYMSNAKIMKEGLEATGLKVYGGVNAPYLWVKTPNGLSSWRFFEQMLYEANVVGTPGVGFGPSGEGYIRLTAFGDHNDCMEAMRRIKNWL”, the “soluble on expression in E. coli” value is recorded as “not soluble”. As to “MYNSATVIYQNLLKSTPKKASEYYYYLGDICWRKEKTDSAKYYFMEGIKTDETYAMNYVGIGIITMKSNATEGQRSFDKALQMTSQKNSQVLNAIGEYYILEADKAELPKGIALLKKSTEIDAKNAMSWILLGDAYGKQAEGSKQAESYGKAANLFHSVPLLKMKYGKMYAAARNKDLSIKYYNEGLAADPTYGPIYRELGDLYNRFRQYDLAIQNYKKYLTYIDSNDDVEFRYADFLFKNNNYAEAIEVFNKLEAKKYNSPYIYNRRAVCYYELAKYDLAQKDIETYFSKVNATKAKLEHHHHHH”, the “soluble on expression in E. coli” value was “not soluble”. As for “MAHHHHHHMLRHLFRCTAAWAPKRSATREQRLKERVAARMELEAQVKSRVACYPHRSLTRPALRLERHQVNTPLFHSQLLNLNKMATDLQCISFSAPKGHWDAAIVLIKGHPNEANFEVWVNPTVPGYDDRHSIAPMYGMWENCISCGACTAWVIRPQSITCSGLDEYGNEKTEVLDGMRARCLMHELDHLSGRTILDQAQGPEFIVSGIAMGQRDLWPPNFPSAEAYMTSPHQFFDYVKNGPIIPPG”, the “soluble on expression in E. coli” value is on record as “not soluble”.

Consider “MKSYQPKSLLNDLQYYITPPHDCSYLDNKSARMVFLDPIHRIDVVTLSELSRVGFRRSGDFVYRPECHLCRQCLSCRVPVHDFNMNSLQKKAWKRNQDLRMSIVPTHAATSVHYQLYERYINERHADGDMFPPSLDQFEKFLVHSCTESFFLELWKDDRLICVSTCDLMDDGLSAVYTFFDPDENRRSLGVFAILKQLEYVKSIDLDYLYLGYWVPHSQKMNYKSQYIPLELLLDGQWRRLNRALSQEEISQLGESLMTILPSEWNSMIIKLEHHHHHH”, for which the “soluble on expression in E. coli” value is listed as “not soluble”.

Source of the values: the DeepSol protein solubility set.
